± gives the uncertainty stated by the source.
B1: POU domain, class 5, transcription factor 1, residues 134 to 212; numbered along this chain, Q01860 (parent)
chain: EESQDIKALQKELEQFAKLLKQKRITLGYTQADVGLTLGVLFGKVFSQTTICRFEALQLSFKNMCKLRPLLQKWVEEAD

Variants of: B1
Experiment: abundance fitness (aPCA) (normalised: wild type 0, dead -1); higher = more abundant; growth selection in yeast, the domain comes from the species named
Settings: Homo sapiens

Point of comparison: EESQDIKALQKELEQFAKLLKAKRITLGYTQADVGLTLGVLFGKVFSQTTICRFEALQLSFKNMCKLRPLLQKWVEEAD [Q22A], abundance fitness -0.151 ± 0.3. Against it:
- EESQDIKALQKELEQFAKLLKQTRITLGYTQADVGLTLGVLFGKVFSQTTICRFEALQLSFKNMCKLRPLLQKWVEEAD [K23T] — within error, -0.384 ± 0.27
- EESQDIKALQKELEQFAKLLKQQRITLGYTQADVGLTLGVLFGKVFSQTTICRFEALQLSFKNMCKLRPLLQKWVEEAD [K23Q] — within error, -0.256 ± 0.46
- EESQDIKALQKELEQFAKLLKQLRITLGYTQADVGLTLGVLFGKVFSQTTICRFEALQLSFKNMCKLRPLLQKWVEEAD [K23L] — within error, -0.608 ± 0.37
- EESQDIKALQKELEQFAKLLKQRRITLGYTQADVGLTLGVLFGKVFSQTTICRFEALQLSFKNMCKLRPLLQKWVEEAD [K23R] — within error, 0.059 ± 0.12
- EESQDIKALQKELEQFAKLLKQARITLGYTQADVGLTLGVLFGKVFSQTTICRFEALQLSFKNMCKLRPLLQKWVEEAD [K23A] — within error, -0.608 ± 0.33
- EESQDIKALQKELEQFAKLLKQKRETLGYTQADVGLTLGVLFGKVFSQTTICRFEALQLSFKNMCKLRPLLQKWVEEAD [I25E] — within error, -0.207 ± 0.38
- EESQDIKALQKELEQFAKLLKQKRRTLGYTQADVGLTLGVLFGKVFSQTTICRFEALQLSFKNMCKLRPLLQKWVEEAD [I25R] — within error, -0.078 ± 0.24
- EESQDIKALQKELEQFAKLLKQKRLTLGYTQADVGLTLGVLFGKVFSQTTICRFEALQLSFKNMCKLRPLLQKWVEEAD [I25L] — within error, 0.249 ± 0.16
- EESQDIKALQKELEQFAKLLKQKRKTLGYTQADVGLTLGVLFGKVFSQTTICRFEALQLSFKNMCKLRPLLQKWVEEAD [I25K] — within error, -0.131 ± 0.47
- EESQDIKALQKELEQFAKLLKQKRVTLGYTQADVGLTLGVLFGKVFSQTTICRFEALQLSFKNMCKLRPLLQKWVEEAD [I25V] — within error, 0.264 ± 0.16
- EESQDIKALQKELEQFAKGLKQKRITLGYTQADVGLTLGVLFGKVFSQTTICRFEALQLSFKNMCKLRPLLQKWVEEAD [L19G] — within error, -0.063 ± 0.13
- EESQDIKALQKELEQFAKALKQKRITLGYTQADVGLTLGVLFGKVFSQTTICRFEALQLSFKNMCKLRPLLQKWVEEAD [L19A] — within error, -0.49 ± 0.35
- EESQDIKALQKELEQFAKELKQKRITLGYTQADVGLTLGVLFGKVFSQTTICRFEALQLSFKNMCKLRPLLQKWVEEAD [L19E] — within error, -0.447 ± 0.32
- EESQDIKALQKELEQFAKCLKQKRITLGYTQADVGLTLGVLFGKVFSQTTICRFEALQLSFKNMCKLRPLLQKWVEEAD [L19C] — within error, 0.164 ± 0.22
- EESQDIKALQKELEQFAKRLKQKRITLGYTQADVGLTLGVLFGKVFSQTTICRFEALQLSFKNMCKLRPLLQKWVEEAD [L19R] — within error, -0.284 ± 0.15
- EESQDIKALQKELEQFAKQLKQKRITLGYTQADVGLTLGVLFGKVFSQTTICRFEALQLSFKNMCKLRPLLQKWVEEAD [L19Q] — within error, 0.04 ± 0.36
- EESQDIKALQKELEQFAKKLKQKRITLGYTQADVGLTLGVLFGKVFSQTTICRFEALQLSFKNMCKLRPLLQKWVEEAD [L19K] — within error, 0.373 ± 0.26
- EESQDIKALQKELEQFAKWLKQKRITLGYTQADVGLTLGVLFGKVFSQTTICRFEALQLSFKNMCKLRPLLQKWVEEAD [L19W] — within error, -0.181 ± 0.16
- EESQDIKALQKELEQFAKTLKQKRITLGYTQADVGLTLGVLFGKVFSQTTICRFEALQLSFKNMCKLRPLLQKWVEEAD [L19T] — within error, -0.49 ± 0.32
- EESQDIKALQKELEQFAKLLKMKRITLGYTQADVGLTLGVLFGKVFSQTTICRFEALQLSFKNMCKLRPLLQKWVEEAD [Q22M] — within error, -0.189 ± 0.45
- EESQDIKALQKELEQFAKLLKSKRITLGYTQADVGLTLGVLFGKVFSQTTICRFEALQLSFKNMCKLRPLLQKWVEEAD [Q22S] — within error, 0.268 ± 0.14
- EESQDIKALQKELEQFAKLLKFKRITLGYTQADVGLTLGVLFGKVFSQTTICRFEALQLSFKNMCKLRPLLQKWVEEAD [Q22F] — higher, 0.56 ± 0.4
- EESQDIKALQKELEQFAKLLKHKRITLGYTQADVGLTLGVLFGKVFSQTTICRFEALQLSFKNMCKLRPLLQKWVEEAD [Q22H] — within error, 0.027 ± 0.29
- EESQDIKALQKELEQFAKLLKRKRITLGYTQADVGLTLGVLFGKVFSQTTICRFEALQLSFKNMCKLRPLLQKWVEEAD [Q22R] — within error, -0.092 ± 0.2
- EESQDIKALQKELEQFAKLAKQKRITLGYTQADVGLTLGVLFGKVFSQTTICRFEALQLSFKNMCKLRPLLQKWVEEAD [L20A] — within error, -0.704 ± 0.27
- EESQDIKALQKELEQFAKLSKQKRITLGYTQADVGLTLGVLFGKVFSQTTICRFEALQLSFKNMCKLRPLLQKWVEEAD [L20S] — within error, -0.399 ± 0.25
- EESQDIKALQKELEQFAKLPKQKRITLGYTQADVGLTLGVLFGKVFSQTTICRFEALQLSFKNMCKLRPLLQKWVEEAD [L20P] — within error, -0.303 ± 0.24
- EESQDIKALQKELEQFAKLGKQKRITLGYTQADVGLTLGVLFGKVFSQTTICRFEALQLSFKNMCKLRPLLQKWVEEAD [L20G] — lower, -0.801 ± 0.23
- EESQDIKALQKELEQFAKLEKQKRITLGYTQADVGLTLGVLFGKVFSQTTICRFEALQLSFKNMCKLRPLLQKWVEEAD [L20E] — within error, -0.313 ± 0.24
- EESQDIKALQKELEQFAKLRKQKRITLGYTQADVGLTLGVLFGKVFSQTTICRFEALQLSFKNMCKLRPLLQKWVEEAD [L20R] — within error, -0.299 ± 0.14
- EESQDIKALQKELEQFAKLWKQKRITLGYTQADVGLTLGVLFGKVFSQTTICRFEALQLSFKNMCKLRPLLQKWVEEAD [L20W] — within error, -0.741 ± 0.38
- EESQDIKALQKELEQFAKLVKQKRITLGYTQADVGLTLGVLFGKVFSQTTICRFEALQLSFKNMCKLRPLLQKWVEEAD [L20V] — within error, -0.056 ± 0.12
- EESQDIKALQKELEQFAKLMKQKRITLGYTQADVGLTLGVLFGKVFSQTTICRFEALQLSFKNMCKLRPLLQKWVEEAD [L20M] — within error, -0.452 ± 0.39

From the Human Domainome abundance scans (Beltran et al. 2025)
